The results in this text go back to patent US6475718.

The target of this experiment is orphan seven transmembrane domain receptor APJ (human) (UniProt P35414). The experiment can be described thus: cell-based or functional assay.
Sequence of UniProt P35414 (P35414 whole entry I109M/F110L, the tested form may be a part): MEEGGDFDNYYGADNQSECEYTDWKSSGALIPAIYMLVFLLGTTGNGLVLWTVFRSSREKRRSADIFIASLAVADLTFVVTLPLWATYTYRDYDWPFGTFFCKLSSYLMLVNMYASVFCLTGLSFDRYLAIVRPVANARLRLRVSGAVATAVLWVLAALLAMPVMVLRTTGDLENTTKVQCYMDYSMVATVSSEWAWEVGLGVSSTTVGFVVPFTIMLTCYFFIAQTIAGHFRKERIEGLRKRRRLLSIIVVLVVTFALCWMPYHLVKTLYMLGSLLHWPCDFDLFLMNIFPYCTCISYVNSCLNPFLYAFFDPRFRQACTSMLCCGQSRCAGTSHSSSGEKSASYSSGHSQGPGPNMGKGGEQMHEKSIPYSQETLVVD

In the case of “HIV-1 89.6 env protein (from UniProt Q73372 32-853)”, the cell-cell fusion (luciferase activity), QT6 target cells with CD4 and APJ (% of that observed with CXCR4) is more than 70.
